Measurements taken from article PMC6224480, “Insights into Kinesin-1 Activation from the Crystal Structure of KLC2 Bound to JIP3” (Structure(London, England:1993), 2018).

Tests used:
CD spectroscopy = assay type: physicochemical; details: 20°C, 20 mM potassium phosphate pH 7.5, 0.5 mM DTT
Method: All CD spectra were recorded on a Chirascan CD spectrometer (Applied Photophysics) in quartz cuvettes with a 0.1 cm path length. Data were recorded at 20°C between 260 - 180 nm in 1 nm increments and a 2 nm bandwidth over an average of two scans. The KLC2^TPR-myc and Trp-JIP3^LZ proteins were dialysed extensively into 20 mM potassium phosphate pH 7.5, 0.5 mM DTT. Spectra were collected from KLC2^TPR-myc samples at concentrations of 0.29, 0.14 and 0.086 mg/ml. Trp-JIP3^LZ spectra were collected at 0.15, 0.074 and 0.044 mg/ml. One spectrum was recorded for each sample at each concentration and background-corrected by subtraction of a buffer-only spectrum. Corrected spectra were converted to units of mean residue ellipticity and deconvolved using the Dichroweb server ([Whitmore and Wallace, 2008]). KLC2^TPR-myc and Trp-JIP3^LZ spectra were analysed using the SELCON3 and CONTIN algorithms, respectively, using reference dataset set 4 ([Sreerama et al., 1999], [van Stokkum et al., 1990]). For each protein, the mean percentage of each secondary structure type, and the corresponding standard deviation, was calculated from the values obtained from the three concentrations. The secondary structure content for KLC2^TPR-myc and Trp-JIP3^LZ were calculated using the KLC2^TPR:JIP3^LZ crystal structure using the STRIDE server (http://webclu.bio.wzw.tum.de/cgi-bin/stride/stridecgi.py) ([Frishman and Argos, 1995]).

[1] = system: KLC2^TPR-myc Arg^312Glu (R312E); assay: ITC of Trp-JIP3^LZ into R312E KLC2^TPR-myc; assay type: binding, murine
Source text: The KLC2^TPR construct used in this work comprised murine KLC2 residues 191-480, which is similar to those used in previous studies ([Nguyen et al., 2017], [Zhu et al., 2012]) but with a slightly longer N-terminal region to include residues 191-194, which are very highly conserved in Bilaterian KLCs. To construct the pMW-His6-SUMO-KLC2^TPR vector, the sequence encoding KLC2^TPR (residues 191-480) was amplified by PCR from a murine template ([Dodding et al., 2011]) and cloned into the NotI/EcoRI sites of pMW his-SUMO. […]
The Trp-JIP3^LZ protein used for CD and ITC experiments was prepared as described above for the JIP3^LZ, with the following modifications. […] The Trp-JIP3^LZ and KLC2^TPR-myc samples used in the fluorescence anisotropy-based binding competition assays were prepared as for those used in the CD and ITC studies, but the final size-exclusion step was performed in 100 mM NaCl, 25 mM HEPES, 5mM MgCl2, 1 mM TCEP (final pH 7.5).
(§1) To study binding of the Trp-JIP3^LZ and FITC-CSTN-WD2 peptide to wild-type and mutant KLC2^TPR-myc, the recombinant proteins were prepared by size exclusion chromatography in 0.1 M NaCl, 25 mM HEPES, 1 mM TCEP, final pH 7.5. […] The peptide concentration was determined by measuring the absorbance at 483 nm and using a molar extinction coefficient of 68,000 M^-1cm^-1. […] The resulting isotherms were analysed in SEDPHAT. […]

[2] = system: wild-type and mutant KLC2^TPR-myc; assay: ITC with wild-type and/or TPR1-mutant KLC2^TPR-myc (collective statements); assay type: binding, murine; details: all three mutations in TPR1 of KLC2^TPR-myc; ITC
Method: The Trp-JIP3^LZ protein used for CD and ITC experiments was prepared as described above for the JIP3^LZ, with the following modifications. Following 3C cleavage, contaminating GST3C was removed by incubation of the eluate with fresh, pre-equilibrated glutathione sepharose 4B resin for 2 hours at room temperature. The Trp-JIP3^LZ was then further purified by size exclusion chromatography using a Superdex 75 16/600 column equilibrated in 100 mM NaCl, 25 mM HEPES, 1 mM TCEP (final pH 7.5). Wild-type/mutant KLC2^TPR-myc samples used for CD and ITC experiments were prepared as described above the KLC2^TPR used in crystallographic studies. The Trp-JIP3^LZ and KLC2^TPR-myc samples used in the fluorescence anisotropy-based binding competition assays were prepared as for those used in the CD and ITC studies, but the final size-exclusion step was performed in 100 mM NaCl, 25 mM HEPES, 5mM MgCl2, 1 mM TCEP (final pH 7.5).
as §1

KLC2^TPR-myc = biological target: T1, KLC2^TPR-myc (Mus musculus, UniProt O88448); assay: Fluorescence anisotropy-based binding competition against FITC-LFP motif peptide; set-up: species or system murine; details: FITC-LFP peptide 300 nM, KLC2^TPR-myc 21 μM, Trp-JIP3^LZ two independent experiments, CSTN-WD1 one experiment
T1 construct: comprised murine KLC2 residues 191-480; His6-SUMO (N, cleaved yes); made in house; host or cells: E. coli BL21(DE3) Rosetta
T1 sequence (O88448 191-480): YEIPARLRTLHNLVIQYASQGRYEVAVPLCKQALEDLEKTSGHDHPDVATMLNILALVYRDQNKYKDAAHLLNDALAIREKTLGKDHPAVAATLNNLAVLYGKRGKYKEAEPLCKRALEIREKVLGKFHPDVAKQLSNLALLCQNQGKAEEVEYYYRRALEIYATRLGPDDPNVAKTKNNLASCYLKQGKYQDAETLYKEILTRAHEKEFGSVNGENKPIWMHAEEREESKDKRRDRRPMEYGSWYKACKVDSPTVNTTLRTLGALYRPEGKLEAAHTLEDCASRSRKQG
Source text: Kinesin-1 activation by JIP3 requires JIP3^LZ binding to KLC^TPR ([Watt et al., 2015]). How does JIP3^LZ binding to the KLC^TPR relieve KLC regulation of the kinesin-1 molecule? Tryptophan-acidic cargoes activate kinesin-1 by releasing the KLC LFP motif from the KLC^TPR ([Yip et al., 2016]). […] We therefore wondered whether JIP3^LZ binding to the KLC2^TPR allosterically regulates interactions between KLC2^TPR and the LFP motif. We investigated this using an in vitro, fluorescence anisotropy-based binding competition assay with purified proteins and peptides ([Yip et al., 2016]). […] Thus, JIP3 activates kinesin-1 by a different mechanism to tryptophan-acidic cargoes.
The binding affinity between the FITC-labelled LFP-motif peptide and the KLC2^TPR-myc was measured essentially as described previously ([Yip et al., 2016]). FITC-labelled LFP motif peptide (300 nM) was incubated with 2-fold dilutions of KLC2^TPR-myc in assay buffer (0.1 M NaCl, 25 mM HEPES, 5 mM MgCl2, 1 mM TCEP, final pH 7.5) in triplicate in 384-well plates, for 1 hour at room temperature. Fluorescence measurements were recorded on a TecanSpark plate reader at excitation and emission wavelengths of 488 nm and 535 nm respectively. Fluorescence anisotropy values were calculated at each KLC2^TPR-myc concentration and the data were fitted with a fixed-slope dose response curve in Prism (GraphPad). […]

binding to Arg^312Glu mutant [1]: retained the ability to bind | effect of the three TPR1 mutations on binding [2]: completely abrogated binding | effect on binding of KLC2^TPR-myc to FITC-labeled LFP motif peptide (KLC2^TPR-myc): no effect
B1: Trp-JIP3^LZ: JIP3^LZ construct N-terminally fused to a tryptophan residue (protein)
chain: WMGKEVGNLLLENSQLLETKNALNVVKNDLIAKVDQLSGEQEVLKGELEAAKQAKVKLENRIKELEEELKRV
modifications: left off: GST, N-terminal, cleaved
notes: JIP3^LZ construct N-terminally fused to a tryptophan residue
mean α-helical content (CD spectroscopy; CONTIN deconvolution, mean and SD from three concentrations (0.15, 0.074, 0.044 mg/ml)): 59% ± 3% | ratio of ellipticities at 222 and 208 nm (CD spectroscopy; n = 3): 0.88 ± 0.01
